{
  "source": "patent US20130209454A1",
  "about": "(CALIFORNIA INSTITUTE OF TECHNOLOGY, published 2013)",
  "binders": {"B1": {"name": "NIH45-46 IgG (antibody, V domains shown)", "VH": "QVRLSQSGGQMKKPGESMRLSCRASGYEFLNCPINWIRLAPGRRPEWMGWLKPRGGAVNYARKFQGRVTMTRDVYSDTAFLELRSLTSDDTAVYFCTRGKYCTARDYYNWDFEHWGRGAPVTVSS", "VL": "EIVLTQSPATLSLSPGETAIISCRTSQSGSLAWYQQRPGQAPRLVIYSGSTRAAGIPDRFSGSRWGADYNLSISNLESGDFGVYYCQQYEFFGQGTKVQVDI"}, "B2": {"name": "NIH45-46 IgG (antibody, V domains shown)", "VH": "B1 VH", "VL": "B1 VL"}},
  "experiment_in_all_cases": "cell-based or functional assay",
  "key": {"[1]": {"biological_target": "HIV-1 Env of strain ZM249M.PL1 (HIV-1)"}, "[2]": {"biological_target": "HIV-1 strain 0330.v4.c3 envelope (gp120) (HIV-1)"}, "[3]": {"biological_target": "HIV-1 strain Ce703010054_2A2 envelope (gp120) (HIV-1)"}, "[4]": {"biological_target": "HIV-1 strain CAP210.2.00.E8 envelope (gp120) (HIV-1)"}, "[5]": {"biological_target": "HIV-1 strain X2131_C1_B5 envelope (gp120) (HIV-1)"}, "[6]": {"biological_target": "HIV-1 strain ZM109F.PB4 envelope (gp120) (HIV-1)"}, "[7]": {"biological_target": "HIV-1 strain ZM247v1(Rev-) envelope (gp120) (HIV-1)"}, "[8]": {"biological_target": "HIV-1 strain 3415.v1.c1 envelope (gp120) (HIV-1)"}, "[9]": {"biological_target": "HIV-1 strain ZM214M.PL15 envelope (gp120) (HIV-1)"}, "[10]": {"biological_target": "HIV-1 strain Q259.d2.17 envelope (gp120) (HIV-1)"}, "[11]": {"biological_target": "HIV-1 strain AC10.0.29 envelope (gp120) (HIV-1)"}, "[12]": {"biological_target": "HIV-1 strain T257-31 envelope (gp120) (HIV-1)"}, "[13]": {"biological_target": "HIV-1 strain T278-50 envelope (gp120) (HIV-1)"}, "[14]": {"biological_target": "HIV-1 strain 6535.3 envelope (gp120) (HIV-1)"}, "[15]": {"biological_target": "HIV-1 strain X1254_c3 envelope (gp120) (HIV-1)"}, "[16]": {"biological_target": "HIV-1 strain Ce1176_A3 envelope (gp120) (HIV-1)"}, "[17]": {"biological_target": "HIV-1 strain 928-28 envelope (gp120) (HIV-1)"}, "[18]": {"biological_target": "HIV-1 strain CAP45.2.00.G3 envelope (gp120) (HIV-1)"}, "[19]": {"biological_target": "HIV-1 strain X1193_c1 envelope (gp120) (HIV-1)"}, "[20]": {"biological_target": "HIV-1 strain RHPA4259.7 envelope (gp120) (HIV-1)"}, "[21]": {"biological_target": "HIV-1 strain R1166.c01 envelope (gp120) (HIV-1)"}, "[22]": {"biological_target": "HIV-1 strain 89-F1_2_25 envelope (gp120) (HIV-1)"}, "[23]": {"biological_target": "HIV-1 strain 620345.c01 envelope (gp120) (HIV-1)"}, "[24]": {"biological_target": "HIV-1 strain Du172.17 envelope (gp120) (HIV-1)"}, "[25]": {"biological_target": "HIV-1 strain TRJO4551.58 envelope (gp120) (HIV-1)"}, "[26]": {"biological_target": "HIV-1 strain ZM53M.PB12 envelope (gp120) (HIV-1)"}, "[27]": {"biological_target": "HIV-1 strain 1056_10_TA11_1826 envelope (gp120) (HIV-1)"}, "[28]": {"biological_target": "HIV-1 strain Du422.1 envelope (gp120) (HIV-1)"}, "[29]": {"biological_target": "HIV-1 strain 703357.C02 envelope (gp120) (HIV-1)"}, "[30]": {"biological_target": "HIV-1 strain ZM233M.PB6 envelope (gp120) (HIV-1)"}, "[31]": {"biological_target": "HIV-1 strain 6480.v4.c25 envelope (gp120) (HIV-1)"}, "[32]": {"biological_target": "HIV-1 strain HIV-16845-2.22 envelope (gp120) (HIV-1)"}, "[33]": {"biological_target": "HIV-1 strain WEAU_d15_410_787 envelope (gp120) (HIV-1)"}, "[34]": {"biological_target": "HIV-1 strain WITO4160.33 envelope (gp120) (HIV-1)"}, "[35]": {"biological_target": "HIV-1 strain 231966.c02 envelope (gp120) (HIV-1)"}, "[36]": {"biological_target": "HIV-1 strain Du156.12 envelope (gp120) (HIV-1)"}, "[37]": {"biological_target": "HIV-1 strain Ce2010_F5 envelope (gp120) (HIV-1)"}, "[38]": {"biological_target": "HIV-1 strain C2101.c01 envelope (gp120) (HIV-1)"}, "[39]": {"biological_target": "HIV-1 strain 3817.v2.c59 envelope (gp120) (HIV-1)"}, "[40]": {"biological_target": "HIV-1 strain TRO.11 envelope (gp120) (HIV-1)"}, "[41]": {"biological_target": "HIV-1 strain Ce0682_E4 envelope (gp120) (HIV-1)"}},
  "data": [
    {"binder": "B1", "values": [
      {"measurement": "neutralization IC50", "setting": "[1]", "result": 0.02, "unit": "µg/mL"}
    ]},
    {"binder": "B2", "values": [
      {"measurement": "neutralization IC80", "setting": "[2]", "result": 0.3, "unit": "µg/mL"},
      {"measurement": "neutralization IC80", "setting": "[3]", "result": 0.538, "unit": "µg/mL"},
      {"measurement": "neutralization IC80", "setting": "[4]", "result": "> 50", "unit": "µg/mL"},
      {"measurement": "neutralization IC80", "setting": "[5]", "result": 0.88, "unit": "µg/mL"},
      {"measurement": "neutralization IC80", "setting": "[6]", "result": 0.437, "unit": "µg/mL"},
      {"measurement": "neutralization IC80", "setting": "[7]", "result": 24.5, "unit": "µg/mL"},
      {"measurement": "neutralization IC80", "setting": "[8]", "result": 0.086, "unit": "µg/mL"},
      {"measurement": "neutralization IC80", "setting": "[9]", "result": 0.59, "unit": "µg/mL"},
      {"measurement": "neutralization IC80", "setting": "[10]", "result": 0.154, "unit": "µg/mL"},
      {"measurement": "neutralization IC80", "setting": "[11]", "result": 1.93, "unit": "µg/mL"},
      {"measurement": "neutralization IC80", "setting": "[12]", "result": 1.38, "unit": "µg/mL"},
      {"measurement": "neutralization IC80", "setting": "[13]", "result": "> 50", "unit": "µg/mL"},
      {"measurement": "neutralization IC80", "setting": "[14]", "result": 0.54, "unit": "µg/mL"},
      {"measurement": "neutralization IC80", "setting": "[15]", "result": 0.107, "unit": "µg/mL"},
      {"measurement": "neutralization IC80", "setting": "[16]", "result": 3.17, "unit": "µg/mL"},
      {"measurement": "neutralization IC80", "setting": "[17]", "result": 0.64, "unit": "µg/mL"},
      {"measurement": "neutralization IC80", "setting": "[18]", "result": "> 50", "unit": "µg/mL"},
      {"measurement": "neutralization IC80", "setting": "[19]", "result": 0.064, "unit": "µg/mL"},
      {"measurement": "neutralization IC80", "setting": "[20]", "result": 0.047, "unit": "µg/mL"},
      {"measurement": "neutralization IC80", "setting": "[21]", "result": 1.21, "unit": "µg/mL"},
      {"measurement": "neutralization IC80", "setting": "[22]", "result": "> 50", "unit": "µg/mL"},
      {"measurement": "neutralization IC80", "setting": "[23]", "result": "> 50", "unit": "µg/mL"},
      {"measurement": "neutralization IC80", "setting": "[24]", "result": "> 50", "unit": "µg/mL"},
      {"measurement": "neutralization IC80", "setting": "[25]", "result": 0.13, "unit": "µg/mL"},
      {"measurement": "neutralization IC80", "setting": "[26]", "result": 0.61, "unit": "µg/mL"},
      {"measurement": "neutralization IC80", "setting": "[27]", "result": 0.447, "unit": "µg/mL"},
      {"measurement": "neutralization IC80", "setting": "[28]", "result": "> 50", "unit": "µg/mL"},
      {"measurement": "neutralization IC80", "setting": "[29]", "result": "> 50", "unit": "µg/mL"},
      {"measurement": "neutralization IC80", "setting": "[30]", "result": 14.2, "unit": "µg/mL"},
      {"measurement": "neutralization IC80", "setting": "[31]", "result": 0.1, "unit": "µg/mL"},
      {"measurement": "neutralization IC80", "setting": "[32]", "result": 22.6, "unit": "µg/mL"},
      {"measurement": "neutralization IC80", "setting": "[33]", "result": 0.015, "unit": "µg/mL"},
      {"measurement": "neutralization IC80", "setting": "[34]", "result": 0.26, "unit": "µg/mL"},
      {"measurement": "neutralization IC80", "setting": "[35]", "result": 9.64, "unit": "µg/mL"},
      {"measurement": "neutralization IC80", "setting": "[36]", "result": 0.054, "unit": "µg/mL"},
      {"measurement": "neutralization IC80", "setting": "[37]", "result": 0.357, "unit": "µg/mL"},
      {"measurement": "neutralization IC80", "setting": "[38]", "result": 31.4, "unit": "µg/mL"},
      {"measurement": "neutralization IC80", "setting": "[39]", "result": "> 50", "unit": "µg/mL"},
      {"measurement": "neutralization IC80", "setting": "[40]", "result": 7.49, "unit": "µg/mL"},
      {"measurement": "neutralization IC80", "setting": "[41]", "result": 0.155, "unit": "µg/mL"}
    ]}
  ]
}
